In data set [1] the test system is PmrA I13M (Acinetobacter baumannii ATCC 19606). The data set can be described thus: fluorescence anisotropy. (Fluorescence polarisation rises when a labelled molecule tumbles more slowly, as on binding a larger partner.)
In data set [2] the test system is PmrA M12I (Acinetobacter baumannii ATCC 19606). The data set can be described thus: fluorescence anisotropy.
Data set [3] shares this test system. As to the kind of experiment: fluorescence anisotropy. This is another data set of the same source.
In data set [4] the test system is PmrA I13M (Acinetobacter baumannii ATCC 19606). As to the kind of experiment: fluorescence anisotropy. The source holds these as a separate data set.
For data set [5], the target named is phosphorylated PmrA D10N (Acinetobacter baumannii (strain ATCC 19606)). As to the kind of experiment: native gel or EMSA; Native PAGE after reaction of 40 uM PmrA with 20 uM PmrB and ATP (phosphorylated PmrA); 14% Tris-glycine gel, 4 C.
Data set [6] deals with phosphorylated PmrA G54E (Acinetobacter baumannii (strain ATCC 19606)). The description is as above.
The target in data set [7] is phosphorylated PmrA I13M (Acinetobacter baumannii (strain ATCC 19606)). Described as above.
The target in data set [8] is phosphorylated PmrA M12I (Acinetobacter baumannii (strain ATCC 19606)). Described as above.
The target of data set [9] is phosphorylated PmrA S119T (Acinetobacter baumannii (strain ATCC 19606)). The description is as above.
For data set [10], the target named is phosphorylated WT PmrA (Acinetobacter baumannii (strain ATCC 19606)). The description is as above.

The text below walks through data of paper PMC12654582.

Like-named read-outs stand apart in the source and are kept apart here.

For the substance AbpmrC_30mer FAM, the Kd (as a rule, the constant that tells how readily two partners part at equilibrium) in data set [1] worked out at 17.4 µM; in data set [2], 21 µM; in [3], 0.0423 µM; in [4] it was 0.0516 µM.
For “phosphorylated PmrA D10N (natural protein)”, the stoichiometry N (in general, the number of molecules, sites or subunits per partner or assembly) in data set [5] came to 2.
Consider “phosphorylated PmrA G54E (natural protein)”, for which the stoichiometry N in data set [6] came to 2.
In data set [7], “phosphorylated PmrA I13M (natural protein)” yielded a stoichiometry N of 2.
For the substance “phosphorylated PmrA M12I (natural protein)”, the stoichiometry N in data set [8] turned out to be 2.
Consider “phosphorylated PmrA S119T (natural protein)”, for which the stoichiometry N in [9] amounted to 2.
Consider “phosphorylated WT PmrA (natural protein)”, for which the stoichiometry N in data set [10] is 2.
